From patent US20260184748A1 (University of Pennsylvania, published 2026)
Where no end group is shown, it is not given here.

What was measured:
Experiment in all cases: cell-based or functional assay
[1] = target: HRH3 (UniProt Q9Y5N1 1-445, limits assumed)
[2] = target: MC1R (UniProt Q01726 1-317)
[3] = target: T1, NPSR1B (UniProt Q6W5P4-4 1-377, limits assumed)
T1 sequence (looked up): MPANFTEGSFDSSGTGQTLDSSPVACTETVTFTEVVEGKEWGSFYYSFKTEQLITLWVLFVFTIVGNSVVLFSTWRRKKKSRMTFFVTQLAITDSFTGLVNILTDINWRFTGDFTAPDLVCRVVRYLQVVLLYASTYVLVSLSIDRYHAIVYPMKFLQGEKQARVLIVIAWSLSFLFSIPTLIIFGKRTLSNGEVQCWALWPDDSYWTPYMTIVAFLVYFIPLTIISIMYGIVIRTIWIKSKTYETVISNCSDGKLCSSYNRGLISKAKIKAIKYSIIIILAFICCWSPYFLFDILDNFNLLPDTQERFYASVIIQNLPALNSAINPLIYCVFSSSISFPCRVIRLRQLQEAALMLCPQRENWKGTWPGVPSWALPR

[4] = target: TACR1 (UniProt P25103 1-407)
[5] = target: T2, CCKAR (UniProt P32238 1-428)
T2 sequence (looked up): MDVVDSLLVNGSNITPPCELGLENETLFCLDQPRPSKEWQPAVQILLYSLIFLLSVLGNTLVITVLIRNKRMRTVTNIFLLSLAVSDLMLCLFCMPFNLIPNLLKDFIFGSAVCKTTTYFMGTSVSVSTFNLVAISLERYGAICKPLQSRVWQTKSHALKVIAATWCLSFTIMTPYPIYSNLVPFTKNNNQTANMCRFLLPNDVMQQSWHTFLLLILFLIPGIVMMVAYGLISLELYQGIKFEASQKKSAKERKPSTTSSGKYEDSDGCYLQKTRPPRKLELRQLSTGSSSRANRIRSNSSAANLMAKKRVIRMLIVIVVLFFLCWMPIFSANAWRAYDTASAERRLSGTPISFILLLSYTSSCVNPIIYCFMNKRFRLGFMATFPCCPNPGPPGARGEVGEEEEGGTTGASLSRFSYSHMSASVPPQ

[6] = target: T3, CCR2 (UniProt P41597-2 1-360, limits assumed)
T3 sequence (looked up): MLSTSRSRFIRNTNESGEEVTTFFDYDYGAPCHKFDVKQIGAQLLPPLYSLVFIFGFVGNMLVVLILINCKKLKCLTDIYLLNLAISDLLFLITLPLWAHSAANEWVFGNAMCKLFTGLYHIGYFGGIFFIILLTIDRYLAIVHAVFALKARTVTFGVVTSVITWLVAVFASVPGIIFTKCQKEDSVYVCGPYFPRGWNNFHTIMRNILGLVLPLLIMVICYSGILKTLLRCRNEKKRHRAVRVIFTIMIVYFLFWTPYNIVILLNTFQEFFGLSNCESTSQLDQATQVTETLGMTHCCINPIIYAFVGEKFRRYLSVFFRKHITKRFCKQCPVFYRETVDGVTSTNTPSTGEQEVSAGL

[7] = target: T4, ADORA3 (UniProt P0DMS8 1-318)
T4 sequence (looked up): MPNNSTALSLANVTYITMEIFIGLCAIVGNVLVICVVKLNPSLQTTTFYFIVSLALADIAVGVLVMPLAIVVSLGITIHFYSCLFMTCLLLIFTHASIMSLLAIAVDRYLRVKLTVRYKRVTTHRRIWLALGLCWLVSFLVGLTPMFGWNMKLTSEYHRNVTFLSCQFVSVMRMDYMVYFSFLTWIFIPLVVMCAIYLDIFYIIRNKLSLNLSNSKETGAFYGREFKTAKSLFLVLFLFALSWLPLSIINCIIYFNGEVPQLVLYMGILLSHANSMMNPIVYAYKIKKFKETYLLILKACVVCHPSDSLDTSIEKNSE

[8] = target: T5, EDG6 (UniProt O95977 1-384)
T5 sequence (looked up): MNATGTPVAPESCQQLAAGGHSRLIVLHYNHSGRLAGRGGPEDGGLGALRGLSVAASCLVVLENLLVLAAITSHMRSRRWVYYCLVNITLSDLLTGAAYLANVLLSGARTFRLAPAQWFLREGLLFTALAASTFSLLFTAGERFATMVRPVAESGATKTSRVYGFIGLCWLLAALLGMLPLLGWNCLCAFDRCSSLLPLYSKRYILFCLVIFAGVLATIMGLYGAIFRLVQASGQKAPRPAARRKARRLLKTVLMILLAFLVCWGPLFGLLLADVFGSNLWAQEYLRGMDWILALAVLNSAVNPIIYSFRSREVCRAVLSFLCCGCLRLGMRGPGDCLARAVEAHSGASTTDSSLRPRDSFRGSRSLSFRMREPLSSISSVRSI

[9] = target: T6, EDG7 (UniProt Q9UBY5 1-353)
T6 sequence (looked up): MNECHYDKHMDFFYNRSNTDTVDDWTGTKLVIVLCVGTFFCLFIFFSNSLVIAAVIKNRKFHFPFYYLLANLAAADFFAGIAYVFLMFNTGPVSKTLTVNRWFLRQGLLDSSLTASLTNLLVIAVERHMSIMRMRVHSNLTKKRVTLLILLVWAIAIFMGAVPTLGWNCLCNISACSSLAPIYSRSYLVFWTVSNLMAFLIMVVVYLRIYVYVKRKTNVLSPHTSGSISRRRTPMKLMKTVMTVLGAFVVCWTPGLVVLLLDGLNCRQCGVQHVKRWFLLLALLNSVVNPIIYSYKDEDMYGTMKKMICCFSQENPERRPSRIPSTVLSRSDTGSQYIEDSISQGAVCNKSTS

[10] = target: T7, EDNRA (UniProt P25101 21-427)
T7 sequence (looked up): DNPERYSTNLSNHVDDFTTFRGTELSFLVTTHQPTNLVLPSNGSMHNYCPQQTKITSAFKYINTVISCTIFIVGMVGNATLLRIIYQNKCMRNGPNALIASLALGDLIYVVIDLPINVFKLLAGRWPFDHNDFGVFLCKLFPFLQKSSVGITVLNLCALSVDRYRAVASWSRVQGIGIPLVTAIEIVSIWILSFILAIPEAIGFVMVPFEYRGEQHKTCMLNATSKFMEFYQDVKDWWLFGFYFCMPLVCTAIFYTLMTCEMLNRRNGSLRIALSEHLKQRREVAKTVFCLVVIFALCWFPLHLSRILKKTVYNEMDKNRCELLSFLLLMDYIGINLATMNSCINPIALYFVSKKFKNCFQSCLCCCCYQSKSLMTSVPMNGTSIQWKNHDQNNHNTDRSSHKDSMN

Chain of MC1R (Q01726 whole entry): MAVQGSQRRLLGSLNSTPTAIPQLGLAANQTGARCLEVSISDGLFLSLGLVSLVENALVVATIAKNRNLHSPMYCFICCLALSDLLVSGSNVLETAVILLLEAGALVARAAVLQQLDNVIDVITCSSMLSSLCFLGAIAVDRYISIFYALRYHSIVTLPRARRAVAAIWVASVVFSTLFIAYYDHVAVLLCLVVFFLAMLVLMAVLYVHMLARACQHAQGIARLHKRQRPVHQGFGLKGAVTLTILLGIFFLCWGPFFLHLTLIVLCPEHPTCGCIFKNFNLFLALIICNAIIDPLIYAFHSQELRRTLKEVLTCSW
Chain of TACR1 (P25103 whole entry): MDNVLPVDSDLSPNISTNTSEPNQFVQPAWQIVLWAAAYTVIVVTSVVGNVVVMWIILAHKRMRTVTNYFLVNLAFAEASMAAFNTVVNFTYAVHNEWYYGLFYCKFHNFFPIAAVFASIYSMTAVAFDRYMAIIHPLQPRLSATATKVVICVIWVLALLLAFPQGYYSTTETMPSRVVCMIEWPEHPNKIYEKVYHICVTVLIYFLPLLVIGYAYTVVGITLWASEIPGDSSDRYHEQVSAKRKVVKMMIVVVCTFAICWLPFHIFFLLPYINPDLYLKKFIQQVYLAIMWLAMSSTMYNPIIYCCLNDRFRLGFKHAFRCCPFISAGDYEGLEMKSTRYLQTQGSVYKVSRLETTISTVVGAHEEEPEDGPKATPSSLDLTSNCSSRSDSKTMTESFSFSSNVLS
Chain of HRH3 (Q9Y5N1 whole entry): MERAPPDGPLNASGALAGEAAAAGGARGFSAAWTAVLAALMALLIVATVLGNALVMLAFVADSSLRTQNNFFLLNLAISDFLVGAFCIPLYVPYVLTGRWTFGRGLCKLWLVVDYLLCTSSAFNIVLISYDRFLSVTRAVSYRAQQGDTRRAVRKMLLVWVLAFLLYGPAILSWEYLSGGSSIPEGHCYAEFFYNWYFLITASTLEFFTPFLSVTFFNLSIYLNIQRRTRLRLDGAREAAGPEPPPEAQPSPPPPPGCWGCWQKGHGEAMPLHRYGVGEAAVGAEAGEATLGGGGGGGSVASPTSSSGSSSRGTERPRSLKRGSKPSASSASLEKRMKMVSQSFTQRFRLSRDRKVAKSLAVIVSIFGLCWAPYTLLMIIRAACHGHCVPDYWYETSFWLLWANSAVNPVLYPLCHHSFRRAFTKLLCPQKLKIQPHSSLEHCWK

QATVGDVNTDRPGLLDLK (also: synthesised on Rink amide resin, C-terminal amide not given here outright) [octadecaneuropeptide (ODN)]
% Activity, arrestin, antagonist mode, 2.5 uM [1]: -8.6%
% Activity, arrestin, antagonist mode, 2.5 uM [2]: 0.4%
% Activity, arrestin, antagonist mode, 2.5 uM [3]: 15.5%
% Activity, arrestin, antagonist mode, 2.5 uM [4]: -17.6%
% Activity, arrestin, antagonist mode, 2.5 uM [5]: -17.2%
% Activity, arrestin, antagonist mode, 2.5 uM [6]: -15.4%
% Activity, arrestin, antagonist mode, 2.5 uM [7]: 0.5%
% Activity, arrestin, antagonist mode, 2.5 uM [8]: 4.5%
% Activity, arrestin, antagonist mode, 2.5 uM [9]: 5%
% Activity, arrestin, antagonist mode, 2.5 uM [10]: 2.5%
